Measurements published in patent US20180066036A1 (APOGENIX, published 2018).

Columns and labels:
[1] = biological target: CD40 (native receptor on the surface of human cells) (human, UniProt P25942 21-277); assay: cell-based or functional assay
[2] = biological target: T1, human CD40-Fc (Enzo, catalogue number ALX-522-016-C050) (human, UniProt P25942 21-193); assay: QCM (Attana A100), human CD40-Fc immobilized, analyte at 1, 5 and 10 µg/ml
T1 construct: Bought reagent; also called immobilized CD40-receptor; not shown: Fc part of the bought fusion protein, not described
T1 sequence (P25942 21-193 limits assumed): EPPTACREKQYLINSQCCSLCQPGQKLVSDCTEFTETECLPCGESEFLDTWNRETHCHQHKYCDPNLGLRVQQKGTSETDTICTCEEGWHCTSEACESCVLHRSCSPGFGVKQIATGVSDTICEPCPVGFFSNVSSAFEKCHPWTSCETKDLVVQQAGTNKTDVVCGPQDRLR
Procedure: The equilibrium binding constants (KD) of trivalent constructs of CD40L (e.g.: PROTEIN X) and hexavalent constructs of CD40L (e.g. PROTEIN A, PROTEIN B, and PROTEIN C) to CD40 was calculated based on kinetic binding data (kₒₙ and koff) determined with an automated biosensor system (Attana A100). The A100 allows to investigate molecular interactions in real-time based on the Quartz Crystal Microbalance (QCM) technique.
For this purpose human CD40-Fc, purchased from Enzo (catalogue number: ALX-522-016-C050), was immobilized on the surface of a carboxyl-activated QCM-chip. Trimeric and hexameric CD40L-constructs were used as soluble analyte at concentrations of 1, 5, and 10 μg/ml. Binding (kₒₙ) and dissociation (koff) was analyzed.

CD40 (native receptor on the surface of human cells), sequence (P25942 21-277): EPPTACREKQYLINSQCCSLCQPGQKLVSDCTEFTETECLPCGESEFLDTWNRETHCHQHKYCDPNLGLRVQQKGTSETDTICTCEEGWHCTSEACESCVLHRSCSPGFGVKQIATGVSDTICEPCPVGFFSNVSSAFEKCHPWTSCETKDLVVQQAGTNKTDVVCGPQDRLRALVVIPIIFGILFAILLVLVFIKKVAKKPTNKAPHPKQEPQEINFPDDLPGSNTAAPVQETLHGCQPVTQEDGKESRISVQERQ

B1: PROTEIN-X2 (ligand)
chain: QIAAHVISEASSKTTSVLQWAEKGYYTMSNNLVTLENGKQLTVKRQGLYYIYAQVTFCSNREASSQAPFIASLCLKSPGRFERILLRAANTHSSAKPCGQQSIHLGGVFELQPGASVFVNVTDPSQVSHGTGFTSFGLLKLGSSSSSSAWSHPQFEK
[1]
  CD86 (MFI), monocytes 3 d, 10 ng/mL: 11 MFI
  CD86 (MFI), monocytes 3 d, 100 ng/mL: 12 MFI
  CD86 (MFI), monocytes 3 d, 1000 ng/mL: 11 MFI
  HLA-DR,DP (MFI), monocytes 3 d, 10 ng/mL: 26 MFI
  HLA-DR,DP (MFI), monocytes 3 d, 100 ng/mL: 29 MFI
  HLA-DR,DP (MFI), monocytes 3 d, 1000 ng/mL: 22 MFI
  Percentage of macrophages that are CD86+, 3 d, 10 ng/mL: 7%
  Percentage of macrophages that are CD86+, 3 d, 100 ng/mL: 7%
  Percentage of macrophages that are CD86+, 3 d, 1000 ng/mL: 8%
  Percentage of macrophages that are CD206+ and CD163+ (M2-like), 3 d, 10 ng/mL: 21%
  Percentage of macrophages that are CD206+ and CD163+ (M2-like), 3 d, 100 ng/mL: 23%
  Percentage of macrophages that are CD206+ and CD163+ (M2-like), 3 d, 1000 ng/mL: 21%
  Percentage of macrophages that are HLA-DR,DP+, 3 d, 10 ng/mL: 5%
  Percentage of macrophages that are HLA-DR,DP+, 3 d, 100 ng/mL: 7%
  Percentage of macrophages that are HLA-DR,DP+, 3 d, 1000 ng/mL: 2%

B2: PROTEIN X (ligand)
chain: QIAAHVISEASSKTTSVLQWAEKGYYTMSNNLVTLENGKQLTVKRQGLYYIYAQVTFCSNREASSQAPFIASLCLKSPGRFERILLRAANTHSSAKPCGQQSIHLGGVFELQPGASVFVNVTDPSQVSHGTGFTSFGLLKLGSGSSGSSGSSGSGYIEDAPSDGKFYVRKDGAWVELPTASGPSSSSSSAWSHPQFEK
notes: Three identical polypeptides; also called trivalent control protein; homotrimeric CD40L-RBD stabilized by RB69 trimerisation scaffold
[1]
  CD86 (MFI), monocytes 3 d, 10 ng/mL: 11 MFI
  CD86 (MFI), monocytes 3 d, 100 ng/mL: 11 MFI
  CD86 (MFI), monocytes 3 d, 1000 ng/mL: 12 MFI
  HLA-DR,DP (MFI), monocytes 3 d, 10 ng/mL: 26 MFI
  HLA-DR,DP (MFI), monocytes 3 d, 100 ng/mL: 26 MFI
  HLA-DR,DP (MFI), monocytes 3 d, 1000 ng/mL: 31 MFI
  Percentage of macrophages that are CD86+, 3 d, 10 ng/mL: 7%
  Percentage of macrophages that are CD86+, 3 d, 100 ng/mL: 8%
  Percentage of macrophages that are CD86+, 3 d, 1000 ng/mL: 16%
  Percentage of macrophages that are CD206+ and CD163+ (M2-like), 3 d, 10 ng/mL: 17%
  Percentage of macrophages that are CD206+ and CD163+ (M2-like), 3 d, 100 ng/mL: 21%
  Percentage of macrophages that are CD206+ and CD163+ (M2-like), 3 d, 1000 ng/mL: 10%
  Percentage of macrophages that are HLA-DR,DP+, 3 d, 10 ng/mL: 5%
  Percentage of macrophages that are HLA-DR,DP+, 3 d, 100 ng/mL: 6%
  Percentage of macrophages that are HLA-DR,DP+, 3 d, 1000 ng/mL: 12%
[2]
  Kd: 9.05 nM
